Measured values from patent publication CN113583112A.

Experiments:
AAVXL32.1蛋白衣壳 [1] = test: BLI (Fortebio), mAb002 on protein G biosensor, antigen at 1.13 nM
AAVXL32.1蛋白衣壳 [2] = test: BLI (Fortebio), mAb002 on protein G biosensor, antigen at 2.25 nM
AAVXL32.1蛋白衣壳 [3] = test: BLI (Fortebio), mAb002 on protein G biosensor, antigen at 0.0703 nM
AAVXL32.1蛋白衣壳 [4] = test: BLI (Fortebio), mAb002 on protein G biosensor, antigen at 0.1406 nM
AAVXL32.1蛋白衣壳 [5] = test: BLI (Fortebio), mAb002 on protein G biosensor, antigen at 0.2813 nM
AAVXL32.1蛋白衣壳 [6] = test: BLI (Fortebio), mAb002 on protein G biosensor, antigen at 0.5625 nM
AAVXL32.1蛋白衣壳 [7] = test: BLI (Fortebio), mAb002 2 ug/ml on protein G biosensor, antigen at 1.13 nM in PBS
AAVXL32.1蛋白衣壳 [8] = test: BLI (Fortebio), mAb002 2 ug/ml on protein G biosensor, antigen at 2.25 nM in PBS
AAVXL32.1蛋白衣壳 [9] = test: BLI (Fortebio), mAb002 2 ug/ml on protein G biosensor, antigen at 0.0703 nM in PBS
AAVXL32.1蛋白衣壳 [10] = test: BLI (Fortebio), mAb002 2 ug/ml on protein G biosensor, antigen at 0.1406 nM in PBS
AAVXL32.1蛋白衣壳 [11] = test: BLI (Fortebio), mAb002 2 ug/ml on protein G biosensor, antigen at 0.2813 nM in PBS
AAVXL32.1蛋白衣壳 [12] = test: BLI (Fortebio), mAb002 2 ug/ml on protein G biosensor, antigen at 0.5625 nM in PBS

B1: mAb002抗体 (antibody, V domains shown)
VH: QVQLQQPGAELVRPGTSVKLSCKASGYTFISYWMHWVKQRPGQGLEWIGVIDPSDSYTNYNQKFKGKATLTVDTSSSTAYMQLSSLTSEDSAVYYCARYYYGSSRYFDVWGTGTTVTVSS
VL: YIQMTQTTSSLSASLGDRVTISCRASQDISNYLNWYQQKPDGTVKVLIYYTSRLHSGVPSRFSGSGSGTDYSLTISNLEQEDIATYFCQQSYTLPWTFGGGTKLEIK
AAVXL32.1蛋白衣壳 [1]
  Kd: < 1 pM
  koff: < 1e-07 s⁻¹
  kon: 3.26e+06 M⁻¹ s⁻¹
AAVXL32.1蛋白衣壳 [2]
  Kd: < 1 pM
  koff: < 1e-07 s⁻¹
  kon: 3.26e+06 M⁻¹ s⁻¹
AAVXL32.1蛋白衣壳 [3]
  Kd: < 1 pM
  koff: < 1e-07 s⁻¹
  kon: 3.26e+06 M⁻¹ s⁻¹
AAVXL32.1蛋白衣壳 [4]
  Kd: < 1 pM
  koff: < 1e-07 s⁻¹
  kon: 3.26e+06 M⁻¹ s⁻¹
AAVXL32.1蛋白衣壳 [5]
  Kd: < 1 pM
  koff: < 1e-07 s⁻¹
  kon: 3.26e+06 M⁻¹ s⁻¹
AAVXL32.1蛋白衣壳 [6]
  Kd: < 1 pM
  koff: < 1e-07 s⁻¹
  kon: 3.26e+06 M⁻¹ s⁻¹
AAVXL32.1蛋白衣壳 [7]
  响应: 4.83
AAVXL32.1蛋白衣壳 [8]
  响应: 5.91
AAVXL32.1蛋白衣壳 [9]
  响应: 0.338
AAVXL32.1蛋白衣壳 [10]
  响应: 0.701
AAVXL32.1蛋白衣壳 [11]
  响应: 1.4
AAVXL32.1蛋白衣壳 [12]
  响应: 2.68
